Assay [1] deals with T1, PD-L1 expressed on CHO-PD-L1 cells (UniProt Q9NZQ7 19-290, limits assumed).
T1 construct: whole, on cells
Description: flow cytometry on CHO-PD-L1 cells. The source says:
(§1) This example illustrates in vitro data for cellular binding EC50 measurements and cell binding specificity. […] The experimental procedure was as follows: CHO-PD-1 cells and CHO-PD-L1 cells were obtained by stably transfecting CHO-K1 cells with PD-1 cDNA ORF clone (Origene RG210364) and PD-L1 cDNA ORF clone (Origene RG213071) respectively. After 2 weeks of Neomycin selection, clones were isolated by Fluorescence-activated cell sorting (FACS) and further expanded. […] For cell binding assays, 50,000 CHO-PD-1 cells, CHO-PD-L1 cells, and ES-2 cells were aliquoted into the wells of a 96-well, v-bottom plate in 100 μl FACS Buffer (PBS+2% FBS). A twelve point, 3× dilution curve of each anti-PD-1 antibody was made in FACS Buffer starting at 50 μg/ml (3.33×10⁻⁷M). Cells were spun down, washed twice with FACS Buffer, and then resuspended in 25 μl of antibody solution in triplicate. After 0.5 hr incubation, cells were washed 1× with FACS Buffer and resuspended in 50 μl PE-conjugated, goat anti-human IgG (γ-chain specific) secondary antibody (Southern Biotech Cat #2040-09). Cells were further incubated for 0.5 hr and then washed 1× with FACS Buffer. Cells were resuspended in 25 μl FACS Buffer and the median fluorescence intensity in the FL2-H channel was determined using the Intellicyt HTFC flow cytometer. Data was analyzed and plotted in Graph Pad Prism using non-linear regression fit.
(§2) Data points on the graph are shown as the median fluorescence intensity (MFI) of positively labeled cells depending on the antibody concentration +/− Std Error.
(Flow cytometry measures light scatter and fluorescence of single cells or particles in a stream.)

Assay [2] concerns the target T2, human PD-1 expressed on cells (human, UniProt Q15116 25-288).
T2 construct: whole, on cells; One entry for cell-surface PD-1; also called CHO-PD-1 cells; Jurkat PD-1 cells
Description: flow cytometry on CHO-PD-1 cells.
Text: as §1, §2

Assay [3] has as its target T3, recombinant cynomolgus PD-1 (cynomolgus).
T3 construct: also called cyno PD-1
Briefly: ELISA on recombinant cynomolgus PD-1. (An ELISA detects its analyte on a solid surface through an enzyme-linked reagent.)

In assay [4] the target is T4, recombinant human PD1 (His-tagged) protein (human, UniProt Q15116 25-167, limits assumed).
T4 construct: not shown: His tag
T4 sequence (Q15116 25-167 limits assumed): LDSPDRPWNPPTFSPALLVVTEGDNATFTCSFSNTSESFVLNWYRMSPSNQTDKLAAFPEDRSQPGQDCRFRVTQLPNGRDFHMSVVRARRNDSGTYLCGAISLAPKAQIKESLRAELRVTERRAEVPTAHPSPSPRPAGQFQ
Description: SPR, antibody captured on anti-human Fc, PD1/His as analyte, 1:1 Langmuir fit. On the procedure: Anti-human Fc antibody was immobilized on CMS sensor chip with approximately 1000 RU. Antibodies (about 10 μg/ml) were captured for 60 s at a flow rate 10 μl/min.PD1/His was serially diluted in running buffer (HBS-EP). All measurements were conducted with a flow rate of 30 μL/min. Surfaces were regenerated with 3M MgCl₂ for 60 s. A 1:1 (Langmuir) binding model was used to fit the data.
For orientation: Surface plasmon resonance follows binding to a sensor surface in real time, without labels.

A further assay has as its target T5, recombinant mouse PD-1 (mouse, UniProt Q02242 25-167, limits assumed).
T5 sequence (looked up): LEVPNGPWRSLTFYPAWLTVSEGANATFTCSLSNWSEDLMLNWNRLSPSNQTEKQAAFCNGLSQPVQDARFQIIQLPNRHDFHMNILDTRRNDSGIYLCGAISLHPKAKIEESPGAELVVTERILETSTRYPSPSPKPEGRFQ
Description: ELISA, detection with anti-human IgG4 heavy chain or anti-human lambda light chain.

For assay [5], the target named is T6, recombinant human PD-1 protein (human, UniProt Q15116 25-167, limits assumed).
T6 construct: also called monomeric recombinant human PD-1
T6 sequence (Q15116 25-167 limits assumed): as the sequence (Q15116 25-167 limits assumed) above
Description: ELISA on recombinant human PD-1.

Assay [6] deals with T2, human PD-1 expressed on cells. Briefly: flow cytometry on Jurkat T cells stably expressing human PD-1.
Description: Primary antibody binding to Jurkat PD-1 cells was detected by flow cytometry using either anti-heavy chain or light chain antibodies directly conjugated to fluorochromes (identical binding curves were obtained using either detection reagent).
Assay [7] addresses human CTLA-4 (recombinant) (human, UniProt P16410 36-161, limits assumed). Briefly: ELISA on coated recombinant protein, one antibody concentration (not given).
For the next assay, the target named is human CD28 (recombinant) (human, UniProt P10747 19-152). The assay is described as above.
The next assay deals with T7, human ICOS (recombinant) (human, UniProt Q9Y6W8 21-140, limits assumed).
T7 sequence (looked up): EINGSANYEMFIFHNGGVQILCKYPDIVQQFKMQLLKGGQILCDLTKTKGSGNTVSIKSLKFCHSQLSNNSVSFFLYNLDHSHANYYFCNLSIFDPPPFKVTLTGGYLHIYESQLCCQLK
Described as above.

The target in assay [8] is T6, recombinant human PD-1 protein. Briefly: Biacore, antibody captured on protein A, monomeric recombinant human PD-1 as analyte.
Assay [9] deals with T4, recombinant human PD1 (His-tagged) …. Briefly: BIAcore, mAb captured on anti-human Fc, His-tagged human PD1 as analyte.
Assay [10] deals with T2, human PD-1 expressed on cells. Briefly: flow cytometry on anti-CD3-activated PBMC. On the procedure: (§3) This example illustrates in vitro data for cellular binding EC50 measurements. […] The experimental procedure is as follows. Peripheral blood mononuclear cells (PBMC) were added to the wells of a 24 well plate and stimulated anti-CD3 (3 ng/ml). After three days of culture the cells were harvested and added to the wells of wells of a 96-well, v-bottom plate in 100 μl FACS Buffer (PBS+2% FBS). A twelve point, 3× dilution curve of each anti-PD-1 antibody was made in FACS Buffer starting at 10 μg/ml (0.6×10⁻⁷M). Cells were spun down, washed twice with FACS Buffer, and then resuspended in 25 μl of antibody solution in triplicate. After 0.5 hr incubation, cells were washed 1× with FACS Buffer and resuspended in 50 μl PE-conjugated, goat anti-human IgG (γ-chain specific) secondary antibody (Southern Biotech Cat #2040-09). Cells were further incubated for 0.5 hr and then washed 1× with FACS Buffer. Cells were resuspended in 25 μl FACS Buffer and the median fluorescence intensity in the FL2-H channel was determined using the Intellicyt HTFC flow cytometer. Data was analyzed and plotted in Graph Pad Prism using non-linear regression fit.

For assay [11] the target is unchanged. Description: flow cytometry on anti-CD3-activated PBMC. On the procedure: as §3
This is another data set of the same source.

This note sets out measurements from patent publication US20170313776A1 (SORRENTO THERAPEUTICS, published 2017).

Substitutions are numbered along the chain they refer to. Names and notes keep the numbering of the source.

T1 sequence (Q9NZQ7 19-290 limits assumed): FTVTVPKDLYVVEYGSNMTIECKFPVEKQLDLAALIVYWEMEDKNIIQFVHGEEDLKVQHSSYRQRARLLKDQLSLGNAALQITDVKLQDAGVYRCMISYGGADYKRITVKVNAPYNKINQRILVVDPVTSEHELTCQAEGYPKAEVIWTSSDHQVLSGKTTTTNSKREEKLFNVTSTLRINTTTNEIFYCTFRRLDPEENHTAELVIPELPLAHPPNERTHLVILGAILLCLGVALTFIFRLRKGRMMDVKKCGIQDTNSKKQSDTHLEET
T2 sequence (Q15116 25-288): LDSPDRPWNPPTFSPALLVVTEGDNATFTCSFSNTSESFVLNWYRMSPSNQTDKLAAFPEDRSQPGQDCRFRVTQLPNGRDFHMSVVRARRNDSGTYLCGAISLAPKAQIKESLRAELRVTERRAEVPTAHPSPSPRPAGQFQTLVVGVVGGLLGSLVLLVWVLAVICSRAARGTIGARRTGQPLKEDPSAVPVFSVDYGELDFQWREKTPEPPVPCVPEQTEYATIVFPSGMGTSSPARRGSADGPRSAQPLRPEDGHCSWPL
Chain of human CTLA-4 (recombinant) (P16410 36-161 limits assumed): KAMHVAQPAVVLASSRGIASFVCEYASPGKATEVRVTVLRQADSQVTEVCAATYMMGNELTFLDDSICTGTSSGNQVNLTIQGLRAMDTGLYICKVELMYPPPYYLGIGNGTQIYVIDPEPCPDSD

B1: RG1B3 (IgG) (antibody, V domains shown)
VH: QVQLVQSGAEVKKPGASVKVSCKASGYTFTSYGISWVRQAPGQGLEWMGWISAYNGNTNYAQKLQGRVTMTTDTSTSTAYMELRSLRSDDTAVYYCARGLYGDEDYWGQGTLVTVSS
VL: LPVLTQPPSVSEVPGQRVTISCSGGISNIGSNAVNWYQHFPGKAPKLLIYYNDLLPSGVSDRFSASKSGTSASLAISGLRSEDEADYYCAAWDDNLSAYVFATGTKVTVL
notes: Detected with anti-human IgG (gamma chain specific); also called PD1 RG1B3
Broadly, the EC50 is the midpoint of the concentration-response curve. As for B1, in assay [1], the binding result is listed as “no binding (tested: 50 µg/ml (3.33×10^-7M) top concentration)”. The molecule also returned an EC50 in assay [2] of 0.183 nM.

B2: RG4A6 (IgG) (antibody, V domains shown)
VH: EVQLVESGGGLVQPGGSLRLSCAASGFTFSSYWMHWVRQAPGKGLEWVSSISSSSSYIYYADSVKGRFTISRDNAKNSLYLQMNSLRAEDTAVYYCARDTLEYYGSGILENAMGYYGMDVWGQGTTVTVSS
VL: not shown
notes: Detected with anti-human IgG (gamma chain specific); also called PD1 RG4A6
Take B2: in assay [1], the binding result was “no binding (tested: 50 µg/ml (3.33×10^-7M) top concentration)”. In assay [2], this molecule showed an EC50 of 0.779 nM.

B3: anti-PD-1 antibody RG1H10 (IgG, isotype not stated in the assay) (antibody, V domains shown)
VH: QVQLVQSGSELKKPGASVKISCKASGYIFSDNGVNWVRQAPGQGLEWMGWINTKIGNPTYAQGFTGRFVFSLDTSISTTYLQISSLQAGDTAVYYCAREHDYYYGMDVWGQGTTVTVSS
VL: QSALTQPPSASGSPGQSVTISCTGTSSDVGGYNYVSWYQHHPGKAPKLMIYEVSKRPSGVPDRFSGSKSAITASLTISGLLTEDEADYYCSAWDDSLNADVFGGGTKVTVL
notes: also called PD1 RG1H10
For orientation: Kd means the concentration at which binding is half-saturated. A word on the koff: it is the rate constant with which the complex falls apart. One may read the kon as the second-order rate constant of association. In the case of B3, the binding result in [1] is reported as “no binding (tested: 50 µg/ml (3.33×10^-7M) top concentration)”; in the assay with recombinant mouse PD-1, “no binding”; in [7] it was “no binding”; with human CD28 (recombinant) it was “no binding”; in the assay with human ICOS (recombinant), “no binding”. In addition, the EC50 was determined as 0.84 nM in [3], 0.0358 nM in assay [2], 0.391 nM in assay [5] and 25.8 nM in [6]. Besides, the Ka in assay [4] is 1.25e+09 M⁻¹. Also, the Kd stood at 0.802 nM in [4] and 3.2 nM in assay [8]. Moreover, the koff in assay [4] was 0.00104 s⁻¹. Also, the kon in assay [4] turned out to be 1.3e+06 M⁻¹ s⁻¹. Further, the “fold maximal binding against competitor 1” value in assay [6] was roughly 2 fold lower. Moreover, in assay [8], the “fold affinity against competitor 3” value is roughly 10 fold.

B4: GA2 (IgG) (antibody, V domains shown)
VH: B3 VH with I76V
VL: QPVLTQPPSASGTPGQRVTISCSGSSSNIGTNTVNWYQQVPGTAPKLLIHGNDQRPSGVPDRFSGSKSDTSASLAITGLQSDDDADYYCSAWDDSLNADVFGGGTKLTVL
notes: Detected with anti-human IgG (gamma chain specific); also called PD1 GA2
As for B4, the binding result in [1] is on record as “no binding (tested: 50 µg/ml (3.33×10^-7M) top concentration)”. This molecule also returned an EC50 in assay [2] of 0.202 nM.

B5: RG1H10 (IgG1) (antibody, V domains shown)
VH: B3 VH
VL: B3 VL
notes: IgG1; also called RG1H10 as immunoglobulin gamma 1
On to B5, for which, in assay [9], the dissociation constant Kd came to 1.3 nM, the koff amounted to 0.001 s⁻¹ and the kon was 750000 M⁻¹ s⁻¹. The molecule also yielded an EC50 in [10] of 0.67 nM. In assay [11], a half-maximal response (EC50) required 0.67 nM.

B6: SH-A4 (IgG) (antibody, V domains shown)
VH: B3 VH with I76V
VL: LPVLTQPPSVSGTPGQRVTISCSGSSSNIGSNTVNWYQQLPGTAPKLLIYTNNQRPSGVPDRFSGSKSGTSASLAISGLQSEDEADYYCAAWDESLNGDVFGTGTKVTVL
notes: Detected with anti-human IgG (gamma chain specific); also called PD1 SHA4
Take B6: in assay [1], the binding result is listed as “no binding (tested: 50 µg/ml (3.33×10^-7M) top concentration)”. In assay [2], this molecule registered an EC50 of 0.115 nM.

B7: RG1H10 (IgG4 S228P) (antibody, V domains shown)
VH: B3 VH
VL: B3 VL
notes: also called RG1H10 as immunoglobulin gamma 4 with hinge mutation S228P
Turning to B7, in assay [9], the Kd was found to be 1.6 nM, the koff came out at 0.0014 s⁻¹ and the kon came to 880000 M⁻¹ s⁻¹. The molecule also registered an EC50 in assay [10] of 0.047 nM. The molecule also yielded an EC50 in assay [11] of 0.047 nM.

B8: H7 (IgG) (antibody, V domains shown)
VH: B3 VH with I76V
VL: QSVLTQPASVSGSPGQSVTISCTGSSSDVGAYNFVSWYRQYPGKAPKLLIYEVNKRPSDVPDRFSGSKFGNTASLTVSGLQADDEADYYCSSYAGSTDVFGTGTKVTVL
notes: Detected with anti-human IgG (gamma chain specific); also called PD1 H7
With B8, the binding result in assay [1] is “no binding (tested: 50 µg/ml (3.33×10^-7M) top concentration)”. Also, in assay [2], the concentration giving a half-maximal response (EC50) is 0.223 nM.

B9: RG2H10 (IgG) (antibody, V domains shown)
VH: QVQLQQSGPGLVRPSQTLSLSCDISGDSVSSNSATWNWIRQSPSRGLEWLGRTFYRSKWYHDYALSVKSRITINPDTSKNQFSLQLNSVSPGDTAVYFCVREDIDGRLDYWGQGTLVTVSS
VL: QPVLTQPASVSGSPGQSITISCTGTSSDVGGYNYVSWYQQHPGKAPKLMIYDVSNRPSGVSNRFSGSKSGNTASLAITGLQSDDDADYYCSAWDDSLNADVFGGGTKLTVL
notes: Detected with anti-human IgG (gamma chain specific); also called PD1 RG2H10
On to B9, for which, in [1], the binding result is “no binding (tested: 50 µg/ml (3.33×10^-7M) top concentration)”. Moreover, the midpoint of the response in assay [2], the EC50, lay at 2.8 nM.
